B1: 223C4: murine anti-c-Met monoclonal antibody, IgG1 kappa; heavy chain SEQ ID No. 20, light chain SEQ ID No. 23 (antibody, V domains shown)
VH: EVLLQQSGPELVKPGASVKIPCKASGYTFTDYNMDWVKQSHGMSLEWIGDINPNNGGTIFNQKFKGKATLTVDKSSSTAYMELRSLTSEDTAVYYCARGRYVGYYYAMDYWGQGTSVTVSS
VL: DIQMTQSPASLSVSVGETVTITCRASENIYSNLAWYQQKQGKSPQLLVYAATNLVDGVPSRFSGSGSGTQYSLKINSLQSEDFGSYYCQHFWGPPYTFGGGTKLEIK
modifications: mus musculus
B2: 224G11: murine anti-c-Met monoclonal antibody, IgG1 kappa; heavy chain SEQ ID No. 18, light chain SEQ ID No. 21 (antibody, V domains shown)
VH: EVQLQQSGPELVKPGASVKISCKTSGYIFTAYTMHWVRQSLGESLDWIGGIKPNNGLANYNQKFKGKATLTVDKSSSTAYMDLRSLTSEDSAVYYCARSEITTEFDYWGQGTALTVSS
VL: DIVLTQSPASLAVSLGQRATISCRASESVDSYANSFMHWYQQKPGQPPKLLIYRASNLESGIPARFSGSGSRTDFTLTINPVEADDVATYYCQQSKEDPLTFGSGTKLEMK
modifications: mus musculus
B3: 11E1: murine anti-c-Met monoclonal antibody, IgG1 kappa; heavy chain SEQ ID No. 62, light chain SEQ ID No. 63 (antibody, V domains shown)
VH: QVQLQQSGAELAKPGASVKMSCKASGYTFTSYWMNWVKQRPGQGLEWIGYINPTTGSTDYNQKLKDKATLTADKSSNTAYMQLSSLTSEDSAVYYCAIGGYGSWFAYWGQGTLVTVSA
VL: QIVLTQSPAIMSASPGEKVTLTCSASSSVSSTYLYWYQQKPGSSPKLWIYTTSILASGVPARFSGSGSGTSYSLTISSMETEDAASYFCHQWSSYPFTFGSGTKLDIK
modifications: mus musculus

Tests used:
[1] = tested on: c-Met; test: BRET analysis of c-Met dimerization on c-Met transfected CHO cells; assay type: cell-based; conditions: CHO cells expressing C-Met-Rluc and C-Met-K1100A-YFP, supernatants
Text: The technology BRET, used in the step iii) of the process, is well known by the person skill in the art and will be detailed in the following examples. More particularly, BRET (Bioluminescence Resonance Energy Transfer) is a non-radiative energy transfer occurring between a bioluminescent donor (Renilla Luciferase (Rluc)) and a fluorescent acceptor, a mutant of GFP (Green Fluorescent Protein) or YFP (Yellow fluorescent protein). In the present case EYFP (Enhanced Yellow Fluorescent Protein) was used. The efficacy of transfer depends on the orientation and the distance between the donor and the acceptor. Then, the energy transfer can occur only if the two molecules are in close proximity (1-10 nm). This property is used to generate protein-protein interaction assays. Indeed, in order to study the interaction between two partners, the first one is genetically fused to the Renilla Luciferase and the second one to the yellow mutant of the GFP. Fusion proteins are generally, but not obligatory, expressed in mammalian cells. In presence of its membrane permeable substrate (coelenterazine), Rluc emits blue light. If the GFP mutant is closer than 10 nm from the Rluc, an energy transfer can occur and an additional yellow signal can be detected. The BRET signal is measured as the ratio between the light emitted by the acceptor and the light emitted by the donor. So the BRET signal will increase as the two fusion proteins are brought into proximity or if a conformational change bring Rluc and GFP mutant closer.
Then antibodies inhibiting at least 50% cell proliferation were evaluated as supernatants by BRET analysis on c-Met transfected cells. For that purpose, CHO stable cell lines expressing C-Met-Rluc or C-Met-Rluc and C-Met-K1100A-YFP were generated. Cells were distributed in white 96 well microplates in DMEM-F12/FBS 5% culture medium one or two days before BRET experiments. Cells were first cultured at 37° C. with CO2 5% in order to allow cell attachment to the plate. Cells were then starved with 200 μl DMEM/well overnight. Immediately prior to the experiment, DMEM was removed and cells quickly washed with PBS. Cells were incubated in PBS in the presence or absence of antibodies to be tested or reference compounds, 10 min at 37° C. prior to the addition of coelenterazine with or without HGF in a final volume of 50 μl. […]
BRET ratio has been defined previously [Angers et al., Proc. Natl. Acad. Sci. USA, 2000, 97:3684-3689] as: [(emission at 530 nm)−(emission at 485 nm)×Cf]/(emission at 485 nm), where Cf corresponds to (emission at 530 nm)/(emission at 485 nm) for cells expressing Rluc fusion protein alone in the same experimental conditions. […] For the sake of readability, results are expressed in milliBRET units (mBU); mBU corresponds to the BRET ratio multiplied by 1000.

[2] = tested on: HUVEC; test: HUVEC tube formation; assay type: cell-based; conditions: HGF 50 ng/ml
Experimental: For evaluation of HUVEC tube formation, 25000 cells incubated 30 min with antibodies to be tested were plated in 48-well plates coated with matrigel. Then HGF 50 ng/ml was added and plates were incubated at 37° C. Medium was then harvested and […] CMFDA was added for 15 min before microscopic observation.

[3] = tested on: HUVEC; test: HUVEC proliferation ([3H]thymidine); assay type: cell-based; conditions: HGF 20 ng/ml, 0.15 to 40 μg/ml
Experimental: For proliferation experiments, 7500 HUVEC were plated in each well of a 96 well plate previously coated with laminin. Cells were grown 24 hours of EMB-2 assay medium supplemented with 0.5% FBS and heparin. Then, MAbs to be tested (0.15 to 40 μg/ml) were added for 1 h before addition of 20 ng/ml of HGF. After 24 additional hours, cells were pulsed with 0.5 μCi of [^3H] Thymidine. The magnitude of [^3H] Thymidine incorporated was quantified by liquid scintillation counting. In This experiment the 9G4 MAb is an irrelevant antibody used as an IgG1 isotype control.

[4] = tested on: NCI-H441; test: NCI-H441 xenograft model (Example 11)
Text: The evaluation of anti-c-met antibodies on the in vivo activity of this non autocrine cell line could give some insights about their potency to impact on c-met dimerization.

[5] = tested on: SK-HEP-1 cells; test: Scatter assay; assay type: cell-based; conditions: SK-HEP-1, antibody 10 μg/ml; for inhibitory effect on cell scattering in presence of HGF: HGF 100 ng/ml; for agonist effect on cell scattering, alone: no HGF
Experimental: SK-HEP-1 cells were seeded at low density (1·10^4 cells/well) in a 24-well plate in DMEM with 10% FCS and grown for 24 hours before addition, at the same time, of HGF (100 ng/ml) and antibodies to be tested (10 μg/ml). After 72 hours incubation, colonies were fixed and stained with 0.2% crystal violet in methanol and assessed for scattering visually. Each tested condition was tested as a triplicate and 3 independent experiments were performed.

c-Met, sequence (P08581 25-307 limits assumed): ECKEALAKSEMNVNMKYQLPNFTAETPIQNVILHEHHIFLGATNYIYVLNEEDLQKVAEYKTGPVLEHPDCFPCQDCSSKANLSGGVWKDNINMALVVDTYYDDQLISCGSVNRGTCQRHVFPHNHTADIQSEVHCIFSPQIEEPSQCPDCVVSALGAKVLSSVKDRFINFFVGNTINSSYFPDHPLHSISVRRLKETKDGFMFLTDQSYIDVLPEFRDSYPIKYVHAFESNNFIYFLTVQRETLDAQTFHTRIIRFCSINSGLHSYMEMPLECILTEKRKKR
c-Met, sequence (P08581 308-932 limits assumed): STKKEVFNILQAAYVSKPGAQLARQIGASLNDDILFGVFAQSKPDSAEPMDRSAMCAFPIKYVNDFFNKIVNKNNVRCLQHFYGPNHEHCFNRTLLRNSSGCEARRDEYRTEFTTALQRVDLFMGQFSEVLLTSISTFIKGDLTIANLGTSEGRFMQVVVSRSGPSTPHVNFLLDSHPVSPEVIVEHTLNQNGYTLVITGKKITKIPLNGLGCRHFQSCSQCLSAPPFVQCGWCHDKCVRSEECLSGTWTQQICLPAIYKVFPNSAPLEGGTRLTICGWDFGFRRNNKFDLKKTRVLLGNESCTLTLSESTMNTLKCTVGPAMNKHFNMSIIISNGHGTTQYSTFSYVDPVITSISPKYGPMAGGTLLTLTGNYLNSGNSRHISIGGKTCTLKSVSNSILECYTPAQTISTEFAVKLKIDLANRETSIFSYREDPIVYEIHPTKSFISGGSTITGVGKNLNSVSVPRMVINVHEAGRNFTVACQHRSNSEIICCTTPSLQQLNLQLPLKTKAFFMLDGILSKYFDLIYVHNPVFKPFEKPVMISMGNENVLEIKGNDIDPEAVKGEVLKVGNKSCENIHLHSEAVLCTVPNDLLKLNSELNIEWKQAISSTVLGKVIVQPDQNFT

| Molecule | inhibition of dimerization [1] [%] | effect on HGF-induced tube formation [2] | inhibition of HGF-induced HUVEC proliferation [3] | inhibition of in vivo growth of NCI-H441 [4] | inhibitory effect on cell scattering in presence of HGF [5] | agonist effect on cell scattering, alone [5] |
| --- | --- | --- | --- | --- | --- | --- |
| B1 | 55 |  |  |  |  |  |
| B2 | 32 | inhibit dramatically | dramatic dose dependent inhibition | inhibited significantly | very significant inhibitory effect | No agonistic effect |
| B3 | 69 | inhibit dramatically | dramatic dose dependent inhibition | inhibited significantly | very significant inhibitory effect | No agonistic effect |

Source: US8871909B2, “Antibodies inhibiting c-Met dimerization and uses thereof” (Pierre Fabre Medicament, priority 2007, dated 2014)
